Reference: patent publication US20170313746A1 (published 2017)
Non-standard residues stand in square brackets, D forms with d. Phe(4-guanidino) = N=C(N)Nc1ccc(C[C@H](N)C(=O)O)cc1

Target: lactate dehydrogenase (LDH) in lysates of NCI-H460 cells (human, UniProt P00338 2-332)
Assay: cell-based or functional assay

Binder | IC50 of LDH activity (LDH activity kit on lysates of treated NCI-H460 cells)
PRGPRPVWWRRWWRRWW (head-to-tail cyclic peptide) [HILR-025 (cyclo-[Pro-Arg-Gly-Pro-Arg-Pro-Val-Trp-Trp-Arg-Arg-Trp-Trp-Arg-Arg-Trp-Trp])] | 16 µM
cyclo(PRGPRPVWW[Phe(4-guanidino)][Phe(4-guanidino)]WW[Phe(4-guanidino)][Phe(4-guanidino)]WW) (SMILES CC(C)[C@@H]1NC(=O)[C@@H]2CCCN2C(=O)[C@H](CCCNC(=N)N)NC(=O)[C@@H]2CCCN2C(=O)CNC(=O)[C@H](CCCNC(=N)N)NC(=O)[C@@H]2CCCN2C(=O)[C@H](Cc2c[nH]c3ccccc23)NC(=O)[C@H](Cc2c[nH]c3ccccc23)NC(=O)[C@H](Cc2ccc(NC(=N)N)cc2)NC(=O)[C@H](Cc2ccc(NC(=N)N)cc2)NC(=O)[C@H](Cc2c[nH]c3ccccc23)NC(=O)[C@H](Cc2c[nH]c3ccccc23)NC(=O)[C@H](Cc2ccc(NC(=N)N)cc2)NC(=O)[C@H](Cc2ccc(NC(=N)N)cc2)NC(=O)[C@H](Cc2c[nH]c3ccccc23)NC(=O)[C@H](Cc2c[nH]c3ccccc23)NC1=O) [HILR-030 (cyclo-[Pro-Arg-Gly-Pro-Arg-Pro-Val-Trp-Trp-Gpa-Gpa-Trp-Trp-Gpa-Gpa-Trp-Trp])] | 22 µM
